In article PMC12636033, “Chemical Engineering of Transcription Factors Uncovered Cell-Permeable μMax Modulators”:

B1: dBr_Jan07_39189 (dsDNA)
DNA 1: GGCTTGCATTGTTGGGCCCACGTGTTGATTGTCTAAGTCTGTGTTCCGTTGTCCGTGCTG
DNA 2: CAGCACGGACAACGGAACACAGACTTAGACAATCAACACGTGGGCCCAACAATGCAAGCC
B2: dBr_Jan07_03400 (dsDNA)
DNA 1: ACGTCGGCTATGATTTCACGCTATTCTAAGACACGTGTCTGTGTTCCGTTGTCCGTGCTG
DNA 2: CAGCACGGACAACGGAACACAGACACGTGTCTTAGAATAGCGTGAAATCATAGCCGACGT
B3: dBr_Jan07_18904 (dsDNA)
DNA 1: CCCGGATAATATTTCGGCTTCAAGAATCACGTGGAAGTCTGTGTTCCGTTGTCCGTGCTG
DNA 2: CAGCACGGACAACGGAACACAGACTTCCACGTGATTCTTGAAGCCGAAATATTATCCGGG
B4: dBr_Jan07_25737 (dsDNA)
DNA 1: TGCACGACCAGTCATCCACGTGTTTGCCCGCAAAGTGTCTGTGTTCCGTTGTCCGTGCTG
DNA 2: CAGCACGGACAACGGAACACAGACACTTTGCGGGCAAACACGTGGATGACTGGTCGTGCA
B5: dBr_Jan07_12609 (dsDNA)
DNA 1: TGATAAGGATCTACTTCAAGAGCACGTGTCATCTATGTCTGTGTTCCGTTGTCCGTGCTG
DNA 2: CAGCACGGACAACGGAACACAGACATAGATGACACGTGCTCTTGAAGTAGATCCTTATCA
B6: dBr_Jan07_13408 (dsDNA)
DNA 1: CCGCGCGCAGGCACTTAGGGTACCTGCTGTCCACGTGTCTGTGTTCCGTTGTCCGTGCTG
DNA 2: CAGCACGGACAACGGAACACAGACACGTGGACAGCAGGTACCCTAAGTGCCTGCGCGCGG
B7: dBr_Jan07_11943 (dsDNA)
DNA 1: GGGCCGGTAAACGGACTGGTACGATGAAGCGCACGTGTCTGTGTTCCGTTGTCCGTGCTG
DNA 2: CAGCACGGACAACGGAACACAGACACGTGCGCTTCATCGTACCAGTCCGTTTACCGGCCC
B8: dBr_Jan07_16204 (dsDNA)
DNA 1: ATGAACCAATCGGTCGATTAGAGATAGAGAAAGAAGGTCTGTGTTCCGTTGTCCGTGCTG
DNA 2: CAGCACGGACAACGGAACACAGACCTTCTTTCTCTATCTCTAATCGACCGATTGGTTCAT
B9: dBr_Jan07_20877 (dsDNA)
DNA 1: TAAACCTAGAGACGCTAAGAACACTTACAGGCGAGCGTCTGTGTTCCGTTGTCCGTGCTG
DNA 2: CAGCACGGACAACGGAACACAGACGCTCGCCTGTAAGTGTTCTTAGCGTCTCTAGGTTTA
B10: dBr_Jan07_07176 (dsDNA)
DNA 1: TATGCGTTGGCCATCTTAATTCCACGTGGTGTCCTCGTCTGTGTTCCGTTGTCCGTGCTG
DNA 2: CAGCACGGACAACGGAACACAGACGAGGACACCACGTGGAATTAAGATGGCCAACGCATA
B11: dBr_Jan07_25672 (dsDNA)
DNA 1: TCACGCACCCCGCAAGCGCAACCACGTGGTAAGGGTGTCTGTGTTCCGTTGTCCGTGCTG
DNA 2: CAGCACGGACAACGGAACACAGACACCCTTACCACGTGGTTGCGCTTGCGGGGTGCGTGA
B12: dBr_Jan07_00940 (dsDNA)
DNA 1: GGATATGGCCCTCCCTACGAACACGTGGAGTTAGGCGTCTGTGTTCCGTTGTCCGTGCTG
DNA 2: CAGCACGGACAACGGAACACAGACGCCTAACTCCACGTGTTCGTAGGGAGGGCCATATCC
B13: dBr_Jan07_28790 (dsDNA)
DNA 1: CTATTCCGATGCCATAAAACTTTCCACTCCACGTGTGTCTGTGTTCCGTTGTCCGTGCTG
DNA 2: CAGCACGGACAACGGAACACAGACACACGTGGAGTGGAAAGTTTTATGGCATCGGAATAG
B14: dBr_Jan07_32554 (dsDNA)
DNA 1: CGACGTTGTCTGACGAATAATGCCGAGCGGACACGTGTCTGTGTTCCGTTGTCCGTGCTG
DNA 2: CAGCACGGACAACGGAACACAGACACGTGTCCGCTCGGCATTATTCGTCAGACAACGTCG
B15: dBr_Jan07_03225 (dsDNA)
DNA 1: TTCTATCCCTAATCTCCGCGTGGCTACCCCTTCAAGGTCTGTGTTCCGTTGTCCGTGCTG
DNA 2: CAGCACGGACAACGGAACACAGACCTTGAAGGGGTAGCCACGCGGAGATTAGGGATAGAA
B16: dBr_Jan07_01481 (dsDNA)
DNA 1: CCGCCAGCATTTCCTGCTTTGCACGTGTAAGATACCGTCTGTGTTCCGTTGTCCGTGCTG
DNA 2: CAGCACGGACAACGGAACACAGACGGTATCTTACACGTGCAAAGCAGGAAATGCTGGCGG
B17: dBr_Jan07_07207 (dsDNA)
DNA 1: TCAGCCGCGTGGCACAATGTCCACAGGTAGGGTACAGTCTGTGTTCCGTTGTCCGTGCTG
DNA 2: CAGCACGGACAACGGAACACAGACTGTACCCTACCTGTGGACATTGTGCCACGCGGCTGA
B18: dBr_Jan07_16171 (dsDNA)
DNA 1: ATCACGTGCATCTACTAGACACCCCATGCGTTAGGCGTCTGTGTTCCGTTGTCCGTGCTG
DNA 2: CAGCACGGACAACGGAACACAGACGCCTAACGCATGGGGTGTCTAGTAGATGCACGTGAT
B19: dBr_Jan07_01937 (dsDNA)
DNA 1: AGCTTTTTATCTCTGTGGGCGGGTAACAACCATGTGGTCTGTGTTCCGTTGTCCGTGCTG
DNA 2: CAGCACGGACAACGGAACACAGACCACATGGTTGTTACCCGCCCACAGAGATAAAAAGCT
B20: dBr_Jan07_19752 (dsDNA)
DNA 1: TAAGCTTCGGTTCTCGTTCGGTACAACACGTGTATGGTCTGTGTTCCGTTGTCCGTGCTG
DNA 2: CAGCACGGACAACGGAACACAGACCATACACGTGTTGTACCGAACGAGAACCGAAGCTTA
B21: dBr_Jan07_04478 (dsDNA)
DNA 1: AGTTGCGCCACTATGCCAAAACACCATTGAGCACGTGTCTGTGTTCCGTTGTCCGTGCTG
DNA 2: CAGCACGGACAACGGAACACAGACACGTGCTCAATGGTGTTTTGGCATAGTGGCGCAACT
B22: dBr_Jan07_01315 (dsDNA)
DNA 1: ATTACCTACTCAACTTACTAGGAAACACGTGCACATGTCTGTGTTCCGTTGTCCGTGCTG
DNA 2: CAGCACGGACAACGGAACACAGACATGTGCACGTGTTTCCTAGTAAGTTGAGTAGGTAAT
B23: dBr_Jan07_34584 (dsDNA)
DNA 1: ATTGCCGCACCTGATGCATCGCCACGTGTTATAATCGTCTGTGTTCCGTTGTCCGTGCTG
DNA 2: CAGCACGGACAACGGAACACAGACGATTATAACACGTGGCGATGCATCAGGTGCGGCAAT
B24: dBr_Jan07_09790 (dsDNA)
DNA 1: ATTCTAATGATTGCGTATACACGTGTCTTGAATTGGGTCTGTGTTCCGTTGTCCGTGCTG
DNA 2: CAGCACGGACAACGGAACACAGACCCAATTCAAGACACGTGTATACGCAATCATTAGAAT
B25: dBr_Jan07_35732 (dsDNA)
DNA 1: TAGTTGTATCTTGATCGCCGATTCCCCATGCCACGTGTCTGTGTTCCGTTGTCCGTGCTG
DNA 2: CAGCACGGACAACGGAACACAGACACGTGGCATGGGGAATCGGCGATCAAGATACAACTA
B26: dBr_Jan07_22161 (dsDNA)
DNA 1: GAATTTACCCGCGCTGTTGGTCACGTGTGTGGTTTTGTCTGTGTTCCGTTGTCCGTGCTG
DNA 2: CAGCACGGACAACGGAACACAGACAAAACCACACACGTGACCAACAGCGCGGGTAAATTC
B27: dBr_Jan07_16409 (dsDNA)
DNA 1: CGTTACTGGTGCACGTGTTCTCCTCTCCACCTTCAGGTCTGTGTTCCGTTGTCCGTGCTG
DNA 2: CAGCACGGACAACGGAACACAGACCTGAAGGTGGAGAGGAGAACACGTGCACCAGTAACG
B28: dBr_Jan07_27092 (dsDNA)
DNA 1: GTTTAGAGGCTGTTTGCTGTCGCCCTACAACCACGTGTCTGTGTTCCGTTGTCCGTGCTG
DNA 2: CAGCACGGACAACGGAACACAGACACGTGGTTGTAGGGCGACAGCAAACAGCCTCTAAAC
B29: dBr_Jan07_39019 (dsDNA)
DNA 1: TCCTTCCCGACGGACAGTGCAATCTGATTATCACGTGTCTGTGTTCCGTTGTCCGTGCTG
DNA 2: CAGCACGGACAACGGAACACAGACACGTGATAATCAGATTGCACTGTCCGTCGGGAAGGA
B30: dBr_Jan07_16225 (dsDNA)
DNA 1: ACATTCCTAGCTATTACTTGGTAGCTCTCAGCACGTGTCTGTGTTCCGTTGTCCGTGCTG
DNA 2: CAGCACGGACAACGGAACACAGACACGTGCTGAGAGCTACCAAGTAATAGCTAGGAATGT
B31: dBr_Jan07_16923 (dsDNA)
DNA 1: TGGGTCATGCTCGAACAGCGTCACTAGGTAGCACGTGTCTGTGTTCCGTTGTCCGTGCTG
DNA 2: CAGCACGGACAACGGAACACAGACACGTGCTACCTAGTGACGCTGTTCGAGCATGACCCA
B32: dBr_Jan07_03962 (dsDNA)
DNA 1: TGGCCGCCACGTGGCGCTCTGCGGTCACATGTTGGGGTCTGTGTTCCGTTGTCCGTGCTG
DNA 2: CAGCACGGACAACGGAACACAGACCCCAACATGTGACCGCAGAGCGCCACGTGGCGGCCA
B33: dBr_Jan07_30895 (dsDNA)
DNA 1: TTGCCGTATAGTGATCCTAAGCGTCCACGTGGATGAGTCTGTGTTCCGTTGTCCGTGCTG
DNA 2: CAGCACGGACAACGGAACACAGACTCATCCACGTGGACGCTTAGGATCACTATACGGCAA

Target: WT Max (Homo sapiens, UniProt P61244-2 13-93, M65Nle, norleucine written as M; other non-natural residues written as X)
Sequence (P61244 other isoform, or with tags, fused parts or gaps M65Nle): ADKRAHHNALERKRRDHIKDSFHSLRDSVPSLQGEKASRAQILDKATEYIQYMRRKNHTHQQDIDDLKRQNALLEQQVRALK
Experiment: PBM; 50-200 nM protein; PBS, 2% milk, BSA, salmon testes DNA, 0.02% Triton X-100
Settings: chain copies: 2; label: surface-attached array probe

Row | Binder | binding signal
1 | B1 | 4.2 robust z of log adjusted intensity (ours), mean of two arrays
2 | B2 | 4.73 robust z of log adjusted intensity (ours), mean of two arrays
3 | B3 | 4.33 robust z of log adjusted intensity (ours), mean of two arrays
4 | B4 | 4.58 robust z of log adjusted intensity (ours), mean of two arrays
5 | B5 | 4.35 robust z of log adjusted intensity (ours), mean of two arrays
6 | B6 | 4.13 robust z of log adjusted intensity (ours), mean of two arrays
7 | B7 | 4.72 robust z of log adjusted intensity (ours), mean of two arrays
8 | B8 | -1.46 robust z of log adjusted intensity (ours), mean of two arrays
9 | B9 | -1.02 robust z of log adjusted intensity (ours), mean of two arrays
10 | B10 | 4.6 robust z of log adjusted intensity (ours), mean of two arrays
11 | B11 | 6.01 robust z of log adjusted intensity (ours), mean of two arrays
12 | B12 | 4.33 robust z of log adjusted intensity (ours), mean of two arrays
13 | B13 | 4.91 robust z of log adjusted intensity (ours), mean of two arrays
14 | B14 | 4.1 robust z of log adjusted intensity (ours), mean of two arrays
15 | B15 | 4.25 robust z of log adjusted intensity (ours), mean of two arrays
16 | B16 | 4.74 robust z of log adjusted intensity (ours), mean of two arrays
17 | B17 | 5.41 robust z of log adjusted intensity (ours), mean of two arrays

Row | Binder | binding signal
18 | B18 | 6.35 robust z of log adjusted intensity (ours), mean of two arrays
19 | B19 | 4.33 robust z of log adjusted intensity (ours), mean of two arrays
20 | B20 | 4.26 robust z of log adjusted intensity (ours), mean of two arrays
21 | B21 | 4.55 robust z of log adjusted intensity (ours), mean of two arrays
22 | B22 | 5.18 robust z of log adjusted intensity (ours), mean of two arrays
23 | B23 | 6.19 robust z of log adjusted intensity (ours), mean of two arrays
24 | B24 | 4.37 robust z of log adjusted intensity (ours), mean of two arrays
25 | B25 | 4.37 robust z of log adjusted intensity (ours), mean of two arrays
26 | B26 | 5.72 robust z of log adjusted intensity (ours), mean of two arrays
27 | B27 | 4.95 robust z of log adjusted intensity (ours), mean of two arrays
28 | B28 | 4.94 robust z of log adjusted intensity (ours), mean of two arrays
29 | B29 | 4.91 robust z of log adjusted intensity (ours), mean of two arrays
30 | B30 | 4.26 robust z of log adjusted intensity (ours), mean of two arrays
31 | B31 | 4.47 robust z of log adjusted intensity (ours), mean of two arrays
32 | B32 | 4.57 robust z of log adjusted intensity (ours), mean of two arrays
33 | B33 | 4.78 robust z of log adjusted intensity (ours), mean of two arrays
